Measured values reported in article PMC6815381, “Unravelling the diversity of glycoside hydrolase family 13 α-amylases from Lactobacillus plantarum WCFS1” (Microbial Cell Factories, 2019).

B1: Lp_2757, maltogenic α-amylase (Lactiplantibacillus plantarum WCFS1) (protein)
chain: MQLAGIRHRPESEDTAVLAAHQLQVRLQTARDDVAQVEILFADSYLWQEGTTALERRIMQPGLATQGNQYWQTTLTVPTNRVVYAFLITDTIGATVGYGEGGFFDDVATNWQTVGNYFHMPYMHVSDAELPPAWVKETVWYQIFPERFANGVRQNDPANVQPWGAGRVHRDSFYGGDLPGITAHLDDLAALGVNGLYLCPIFTSPSNHKYDTIDHFEIDPHFGTKADFQALVDGAHARGMRVMLDAVFNHFGEQSPQWQDVIKNGEQSRFADWFHIHGWPVGRDPKTKRLNYETFATGAAMPKVNTQNPAVQAYLIDVTKYWIEQFGIDAWRFDVADEVDHGFWRALCGALRAIKPDVYLLGESWHSSQSLVGNGQFNAVMNYPLTQPILALFNGQLNPEDYVGKTNLELMMYRQPNQQAMFNALDTHDTPRLLTTLHGQLTKFKSALTLLMLLPGSPCIYYGTEVAMAGGADPDNRRCMNWQPDEQEQQVRQFVTRLIKFRRQQADFLATSQLTWTIDGHCLILTRTDVEQTIQGRFNLGAQAVSTVSGVSPILTAGITANEMAPGGFELTVA
notes: gene 1722 bp
B2: Lp_0179 (Amy2), maltose-forming α-amylase (Lactiplantibacillus plantarum WCFS1) (protein)
chain: MARDTQTQLRNEMIYSVFVRNYSEAGNFAGVTADLQRIKDLGTDILWLLPINPIGEVNRKGTLGSPYAIKDYRGINPEYGTLADFKALTDRAHELGMKVMLDIVYNHTSPDSVLATEHPEWFYHDADGQLTNKVGDWSDVKDLDYGHHELWQYQIDTLLYWSQFVDGYRCDVAPLVPLDFWLEARKQVNAKYPETLWLAESAGSGFIEELRSQGYTGLSDSELYQAFDMTYDYDVFGDFKDYWQGRSTVERYVDLLQRQDATFPGNYVKMRFLENHDNARMMSLMHSKAEAVNNLTWIFMQRGIPLIYNGQEFLAEHQPSLFDRDTMVADRHGDVTPLIQKLVTIKQLPLLRAADYQLAVVEEGIVKITYRAAGEALTAWIPLKGQVTAVATKLAAGSYQNLLTDGPTEVVDGKLTVDGQPVLIKYVTNTAVTKVADQSN
notes: gene 1320 bp

Substrate: O=[N+]([O-])c1ccc(O[C@H]2O[C@H](CO)[C@@H](O[C@H]3O[C@H](CO)[C@@H](O)[C@H](O)[C@H]3O)[C@H](O)[C@H]2O)cc1
Experiment: purified protein
Format: biochemical, Lactiplantibacillus plantarum
Conditions: 50 mM MOPS pH 7.0, 20 mM NaCl, 1 mM DTT, 30 °C, substrate 0-10 mM

Protein	Km	Vmax	kcat
B1	620 ± 120 µM	0.016 µmol/min	4.9142 ± 1.67e-05 s⁻¹
B2	320 ± 70 µM	0.017 µmol/min	3.856 ± 3.33e-05 s⁻¹
